# Experimental data reported in patent US20110236390A1 (Janssen / Centocor, published 2011).
# T1: cynomolgus IL-17A (cynomolgus, UniProt Q16552 24-155 (human entry), limits assumed)
# T1 chain: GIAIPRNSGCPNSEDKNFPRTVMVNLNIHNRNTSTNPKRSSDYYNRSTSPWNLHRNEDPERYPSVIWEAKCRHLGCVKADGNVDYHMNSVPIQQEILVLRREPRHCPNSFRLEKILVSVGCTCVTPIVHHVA
# Target: T1, cynomolgus IL-17A
# Assay: cell-based or functional assay
Binder,"IL-6 production (NHDF), IC50 [pM]","IL-8 production (NHDF), IC50 [pM]"
"mAb3077 (antibody, human IgG1, lambda, V domains shown, Framework-engineered mAb; also called engineered form of MOR7785) VH: QVQLVQSGAEVKKPGSSVKVSCKASGGTFSSYAISWVRQAPGQGLEWMGSIIPWFGWTNYAQKFQGRVTITADESTSTAYMELSSLRSEDTAVYYCARDSEYYFDHWGQGTLVTVSS VL: DIQMTQSPSSVSASVGDRVTITCRASQGISNWLNWYQQKPGKAPKLLIYAASSLQSGVPSRFSGSGSGTDFTLTISSLQPEDFATYYCQQYSDDPTFGQGTKVEIKG",113,374
"mAb624 (antibody, human IgG1, lambda, V domains shown, Framework-engineered mAb; also called engineered form of MOR7708) VH: QVQLVQSGAEVKKPGSSVKVSCKASGGTFSSYAISWVRQAPGQGLEWMGRIIPWFGWTSYAQKFQGRVTITADESTSTAYMELSSLRSEDTAVYYCARDSEYYFDHWGQGTLVTVSS VL: DIQMTQSPSSVSASVGDRVTITCRASQGISNWLNWYQQKPGKAPKLLIYAASSLQSGVPSRFSGSGSGTDFTLTISSLQPEDFATYYCQQYSDDPTFGQGTKVEIKG",–,192
"mAb7024 (antibody, human IgG1, lambda, V domains shown, Framework-engineered mAb; also called engineered form of MOR8104) VH: QVQLVQSGAEVKKPGSSVKVSCKASGGTFSSYAISWVRQAPGQGLEWMGSIIPWFGTTNYAQKFQGRVTITADESTSTAYMELSSLRSEDTAVYYCARDSEYYFDHWGQGTLVTVSS VL: DIQMTQSPSSVSASVGDRVTITCRASQGISNWLNWYQQKPGKAPKLLIYAASSLQSGVPSRFSGSGSGTDFTLTISSLQPEDFATYYCQQYSDDPTFGQGTKVEIKG",999,2980

# Target: T1, cynomolgus IL-17A
# Assay: competition ELISA: mAb against biotinylated cyno IL-17A binding to coated IL-17RA-Fc
# Procedure: (§1) Clear maxisorp plates were coated with 100 μl/well of 2.5 μg/ml human IL-17RA-Fc (R&D Systems, Minneapolis, Minn.) in 0.1 M sodium carbonate-bicarbonate buffer, pH 9.4 and incubated overnight at 4° C. […] The signal was detected with 100 μl of 1:10,000 dilution of 1 mg/ml SA-HRP (Jackson Immunoresearch, West Grove, Pa.) for 20 minutes at room temperature (RT) followed by 100 μl/well of OPD substrate (Sigma-Aldrich Corp., St. Louis, Mo.).
row,Binder,IC50 [nM]
1,"MORmAb7785 (antibody, V domains shown) VH: QVQLVQSGAEVKKPGSSVKVSCKASGGTFSSYAISWVRQAPGQGLEWMGSIIPWFGWTNYAQKFQGRVTITADESTSTAYMELSSLRSEDTAVYYCARDSEYYFDHWGQGTLVTVSS VL: DIQMTQSPSSLSASVGDRVTITCRASQGISNWLNWYQQKPGKAPKLLIYAASSLQSGVPSRFSGSGSGTDFTLTISSLQPEDFAVYYCQQYSDDPTFGQGTKVEIK",0.27
2,"MORmAb7708 (antibody, V domains shown) VH: QVQLVQSGAEVKKPGSSVKVSCKASGGTFSSYAISWVRQAPGQGLEWMGRIIPWFGWTSYAQKFQGRVTITADESTSTAYMELSSLRSEDTAVYYCARDSEYYFDHWGQGTLVTVSS VL: DIQMTQSPSSLSASVGDRVTITCRASQGISNWLNWYQQKPGKAPKLLIYAASSLQSGVPSRFSGSGSGTDFTLTISSLQPEDFAVYYCQQYSDDPTFGQGTKVEIK",0.289
3,"MORmAb8105 (antibody, V domains shown) VH: QVQLVQSGAEVKKPGSSVKVSCKASGGTFSSYAISWVRQAPGQGLEWMGSIIPWFGYTNYAQKFQGRVTITADESTSTAYMELSSLRSEDTAVYYCARDSEYYFDHWGQGTLVTVSS VL: DIQMTQSPSSLSASVGDRVTITCRASQGISNWLNWYQQKPGKAPKLLIYAASSLQSGVPSRFSGSGSGTDFTLTISSLQPEDFAVYYCQQYSDDPTFGQGTKVEIK",0.498
4,"MORmAb8104 (antibody, V domains shown) VH: QVQLVQSGAEVKKPGSSVKVSCKASGGTFSSYAISWVRQAPGQGLEWMGSIIPWFGTTNYAQKFQGRVTITADESTSTAYMELSSLRSEDTAVYYCARDSEYYFDHWGQGTLVTVSS VL: DIQMTQSPSSLSASVGDRVTITCRASQGISNWLNWYQQKPGKAPKLLIYAASSLQSGVPSRFSGSGSGTDFTLTISSLQPEDFAVYYCQQYSDDPTFGQGTKVEIK",0.306
5,"MORmAb7775 (antibody, V domains shown) VH: QVQLQQSGPGLVKPSQTLSLTCAISGDSVSSSSAAWGWIRQSPGRGLEWLGRISYRSKWYNDYAVSVKSRITINPDTSKNQFSLQLNSVTPEDTAVYYCAREVDSMYYSYFDIWGQGTLVTVSS VL: DIVLTQSPATLSLSPGERATLSCRASQNVWAFYLAWYQQKPGQAPRLLIYGASNRATGVPARFSGSGSGTDFTLTISSLEPEDFATYYCTQYYSSPSLTFGQGTKVEIK",0.541
6,"MORmAb7706 (antibody, V domains shown) VH: QVQLQQSGPGLVKPSQTLSLTCAISGDSVSSSSAAWGWIRQSPGRGLEWLGRISYRSKWYNDYAVSVKSRITINPDTSKNQFSLQLNSVTPEDTAVYYCAREVDSMYYSYFDIWGQGTLVTVSS VL: DIVLTQSPATLSLSPGERATLSCRASQNVWAFYLAWYQQKPGQAPRLLIYGASNRATGVPARFSGSGSGTDFTLTISSLEPEDFATYYCQQYRSTLSLTFGQGTKVEIK",0.961
7,"MORmAb8101 (antibody, V domains shown) VH: QVQLQQSGPGLVKPSQTLSLTCAISGDSVSSSSAAWGWIRQSPGRGLEWLGRISYRSKWYNDYAVSVKSRITINPDTSKNQFSLQLNSVTPEDTAVYYCAREVDSIYYSYFDIWGQGTLVTVSS VL: DIVLTQSPATLSLSPGERATLSCRASQNVWAFYLAWYQQKPGQAPRLLIYGASNRATGVPARFSGSGSGTDFTLTISSLEPEDFATYYCTQYYSSPSLTFGQGTKVEIK",0.845
8,"MORmAb8102 (antibody, V domains shown) VH: QVQLQQSGPGLVKPSQTLSLTCAISGDSVSSSSAAWGWIRQSPGRGLEWLGRISYRSKWYNDYAVSVKSRITINPDTSKNQFSLQLNSVTPEDTAVYYCAREVDSLYYSYFDIWGQGTLVTVSS VL: DIVLTQSPATLSLSPGERATLSCRASQNVWAFYLAWYQQKPGQAPRLLIYGASNRATGVPARFSGSGSGTDFTLTISSLEPEDFATYYCTQYYSSPSLTFGQGTKVEIK",0.838
9,"MORmAb8103 (antibody, V domains shown) VH: QVQLQQSGPGLVKPSQTLSLTCAISGDSVSSSSAAWGWIRQSPGRGLEWLGRISYRSKWYNDYAVSVKSRITINPDTSKNQFSLQLNSVTPEDTAVYYCAREVDSTYYSYFDIWGQGTLVTVSS VL: DIVLTQSPATLSLSPGERATLSCRASQNVWAFYLAWYQQKPGQAPRLLIYGASNRATGVPARFSGSGSGTDFTLTISSLEPEDFATYYCTQYYSSPSLTFGQGTKVEIK",0.491
10,"MORmAb7700 (antibody, V domains shown) VH: QVQLVESGGGLVQPGGSLRLSCAASGFTFSSYAMSWVRQAPGKGLEWVSTISMTSGFTYYADSVKGRFTISRDNSKNTLYLQMNSLRAEDTAVYYCARQLMLDVWGQGTLVTVSS VL: DIELTQPPSVSVAPGQTARISCSGDNLGDKYANWYQQKPGQAPVLVIYDDIDRPSGIPERFSGSNSGNTATLTISGTQAEDEADYYCGSYDFFLGMIVFGGGTKLTVL",0.236
11,"MORmAb8095 (antibody, V domains shown) VH: QVQLVESGGGLVQPGGSLRLSCAASGFTFSSYAMSWVRQAPGKGLEWVSTISITSGFTYYADSVKGRFTISRDNSKNTLYLQMNSLRAEDTAVYYCARQLMLDVWGQGTLVTVSS VL: DIELTQPPSVSVAPGQTARISCSGDNLGDKYANWYQQKPGQAPVLVIYDDIDRPSGIPERFSGSNSGNTATLTISGTQAEDEADYYCGSYDFFLGMIVFGGGTKLTVL",0.198
12,"MORmAb8096 (antibody, V domains shown) VH: QVQLVESGGGLVQPGGSLRLSCAASGFTFSSYAMSWVRQAPGKGLEWVSTISLTSGFTYYADSVKGRFTISRDNSKNTLYLQMNSLRAEDTAVYYCARQLMLDVWGQGTLVTVSS VL: DIELTQPPSVSVAPGQTARISCSGDNLGDKYANWYQQKPGQAPVLVIYDDIDRPSGIPERFSGSNSGNTATLTISGTQAEDEADYYCGSYDFFLGMIVFGGGTKLTVL",0.058
13,"MORmAb8097 (antibody, V domains shown) VH: QVQLVESGGGLVQPGGSLRLSCAASGFTFSSYAMSWVRQAPGKGLEWVSTISMTSGFTYYADSVKGRFTISRDNSKNTLYLQMNSLRAEDTAVYYCARQLLLDVWGQGTLVTVSS VL: DIELTQPPSVSVAPGQTARISCSGDNLGDKYANWYQQKPGQAPVLVIYDDIDRPSGIPERFSGSNSGNTATLTISGTQAEDEADYYCGSYDFFLGMIVFGGGTKLTVL",0.3
14,"MORmAb8141 (antibody, V domains shown) VH: QVQLVESGGGLVQPGGSLRLSCAASGFTFSSYAMSWVRQAPGKGLEWVSTISMTSGFTYYADSVKGRFTISRDNSKNTLYLQMNSLRAEDTAVYYCARQLMLDVWGQGTLVTVSS VL: DIELTQPPSVSVAPGQTARISCSGDNLGDKYANWYQQKPGQAPVLVIYDDIDRPSGIPERFSGSNSGNTATLTISGTQAEDEADYYCGSYDFFLGLIVFGGGTKLTVL",1.44
15,"MORmAb8098 (antibody, V domains shown) VH: QVQLVESGGGLVQPGGSLRLSCAASGFTFSSYAMSWVRQAPGKGLEWVSTISMTSGFTYYADSVKGRFTISRDNSKNTLYLQMNSLRAEDTAVYYCARQLTLDVWGQGTLVTVSS VL: DIELTQPPSVSVAPGQTARISCSGDNLGDKYANWYQQKPGQAPVLVIYDDIDRPSGIPERFSGSNSGNTATLTISGTQAEDEADYYCGSYDFFLGMIVFGGGTKLTVL",0.289
16,"MORmAb8142 (antibody, V domains shown) VH: QVQLVESGGGLVQPGGSLRLSCAASGFTFSSYAMSWVRQAPGKGLEWVSTISMTSGFTYYADSVKGRFTISRDNSKNTLYLQMNSLRAEDTAVYYCARQLMLDVWGQGTLVTVSS VL: DIELTQPPSVSVAPGQTARISCSGDNLGDKYANWYQQKPGQAPVLVIYDDIDRPSGIPERFSGSNSGNTATLTISGTQAEDEADYYCGSYDFFLGTIVFGGGTKLTVL",0.139
17,"MORmAb8143 (antibody, V domains shown) VH: QVQLVESGGGLVQPGGSLRLSCAASGFTFSSYAMSWVRQAPGKGLEWVSTISMTSGFTYYADSVKGRFTISRDNSKNTLYLQMNSLRAEDTAVYYCARQLMLDVWGQGTLVTVSS VL: DIELTQPPSVSVAPGQTARISCSGDNLGDKYANWYQQKPGQAPVLVIYDDIDRPSGIPERFSGSNSGNTATLTISGTQAEDEADYYCGSYDFFLGYIVFGGGTKLTVL",0.252

# Target: T1, cynomolgus IL-17A
# Assay: as above
# Remark: another data set of the same source
# Procedure: as §1
row,Binder,IC50 [nM]
1,"mAb3077 (antibody, human IgG1, lambda, V domains shown, Framework-engineered mAb; also called engineered form of MOR7785) VH: QVQLVQSGAEVKKPGSSVKVSCKASGGTFSSYAISWVRQAPGQGLEWMGSIIPWFGWTNYAQKFQGRVTITADESTSTAYMELSSLRSEDTAVYYCARDSEYYFDHWGQGTLVTVSS VL: DIQMTQSPSSVSASVGDRVTITCRASQGISNWLNWYQQKPGKAPKLLIYAASSLQSGVPSRFSGSGSGTDFTLTISSLQPEDFATYYCQQYSDDPTFGQGTKVEIKG",0.054
2,"mAb624 (antibody, human IgG1, lambda, V domains shown, Framework-engineered mAb; also called engineered form of MOR7708) VH: QVQLVQSGAEVKKPGSSVKVSCKASGGTFSSYAISWVRQAPGQGLEWMGRIIPWFGWTSYAQKFQGRVTITADESTSTAYMELSSLRSEDTAVYYCARDSEYYFDHWGQGTLVTVSS VL: DIQMTQSPSSVSASVGDRVTITCRASQGISNWLNWYQQKPGKAPKLLIYAASSLQSGVPSRFSGSGSGTDFTLTISSLQPEDFATYYCQQYSDDPTFGQGTKVEIKG",0.051
3,"mAb7024 (antibody, human IgG1, lambda, V domains shown, Framework-engineered mAb; also called engineered form of MOR8104) VH: QVQLVQSGAEVKKPGSSVKVSCKASGGTFSSYAISWVRQAPGQGLEWMGSIIPWFGTTNYAQKFQGRVTITADESTSTAYMELSSLRSEDTAVYYCARDSEYYFDHWGQGTLVTVSS VL: DIQMTQSPSSVSASVGDRVTITCRASQGISNWLNWYQQKPGKAPKLLIYAASSLQSGVPSRFSGSGSGTDFTLTISSLQPEDFATYYCQQYSDDPTFGQGTKVEIKG",0.117
